Experimental data reported in paper PMC9751095 (2022).

Target: T1, Myc-TRAP1 (human, UniProt Q12931 60-704)
T1 chain: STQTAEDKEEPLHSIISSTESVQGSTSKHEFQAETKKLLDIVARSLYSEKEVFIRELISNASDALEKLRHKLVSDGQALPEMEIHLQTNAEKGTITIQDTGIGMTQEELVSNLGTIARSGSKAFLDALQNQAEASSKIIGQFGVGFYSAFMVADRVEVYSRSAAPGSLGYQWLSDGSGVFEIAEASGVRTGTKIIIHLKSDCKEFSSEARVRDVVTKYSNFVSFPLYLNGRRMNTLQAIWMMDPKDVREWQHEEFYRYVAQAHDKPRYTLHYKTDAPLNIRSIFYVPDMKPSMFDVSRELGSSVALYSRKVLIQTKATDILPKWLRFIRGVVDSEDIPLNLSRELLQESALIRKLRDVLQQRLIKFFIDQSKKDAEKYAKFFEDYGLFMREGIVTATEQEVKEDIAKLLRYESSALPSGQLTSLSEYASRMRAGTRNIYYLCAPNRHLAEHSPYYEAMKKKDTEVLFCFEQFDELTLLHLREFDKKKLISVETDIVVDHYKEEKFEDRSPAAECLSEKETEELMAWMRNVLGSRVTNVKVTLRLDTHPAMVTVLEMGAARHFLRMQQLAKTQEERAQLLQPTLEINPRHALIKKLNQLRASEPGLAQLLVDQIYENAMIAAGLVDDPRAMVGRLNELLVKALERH
Experiment: SPR; printed as "Ka 69.8 µM"

- Kd: 69.8 µM
B1: recombinant mature human OSCP (natural protein)
chain: FAKLVRPPVQVYGIEGRYATALYSAASKQNKLEQVEKELLRVAQILKEPKVAASVLNPYVKRSIKVKSLNDITAKERFSPLTTNLINLLAENGRLSNTQGVVSAFSTMMSVHRGEVPCTVTSASPLEEATLSELKTVLKSFLSQGQVLKLEAKTDPSILGGMIVRIGEKYVDMSVKTKIQKLGRAMREIV
